From patent US20200392225A1 (Novartis, published 2020)
Where a chain is given by its changes, count along the chain named.

What was measured:
[1] = biological target: T1, human NPR1 expressed on CHO-K1 cells in the presence of ANP (human, UniProt P01160 124-151); experiment: flow cytometry, hNPR1 expressing CHO-K1 cells with saturating ANP [cont.]
T1 construct: also called hNPR1 CHO K1 + 100 nM ANP
T1 sequence: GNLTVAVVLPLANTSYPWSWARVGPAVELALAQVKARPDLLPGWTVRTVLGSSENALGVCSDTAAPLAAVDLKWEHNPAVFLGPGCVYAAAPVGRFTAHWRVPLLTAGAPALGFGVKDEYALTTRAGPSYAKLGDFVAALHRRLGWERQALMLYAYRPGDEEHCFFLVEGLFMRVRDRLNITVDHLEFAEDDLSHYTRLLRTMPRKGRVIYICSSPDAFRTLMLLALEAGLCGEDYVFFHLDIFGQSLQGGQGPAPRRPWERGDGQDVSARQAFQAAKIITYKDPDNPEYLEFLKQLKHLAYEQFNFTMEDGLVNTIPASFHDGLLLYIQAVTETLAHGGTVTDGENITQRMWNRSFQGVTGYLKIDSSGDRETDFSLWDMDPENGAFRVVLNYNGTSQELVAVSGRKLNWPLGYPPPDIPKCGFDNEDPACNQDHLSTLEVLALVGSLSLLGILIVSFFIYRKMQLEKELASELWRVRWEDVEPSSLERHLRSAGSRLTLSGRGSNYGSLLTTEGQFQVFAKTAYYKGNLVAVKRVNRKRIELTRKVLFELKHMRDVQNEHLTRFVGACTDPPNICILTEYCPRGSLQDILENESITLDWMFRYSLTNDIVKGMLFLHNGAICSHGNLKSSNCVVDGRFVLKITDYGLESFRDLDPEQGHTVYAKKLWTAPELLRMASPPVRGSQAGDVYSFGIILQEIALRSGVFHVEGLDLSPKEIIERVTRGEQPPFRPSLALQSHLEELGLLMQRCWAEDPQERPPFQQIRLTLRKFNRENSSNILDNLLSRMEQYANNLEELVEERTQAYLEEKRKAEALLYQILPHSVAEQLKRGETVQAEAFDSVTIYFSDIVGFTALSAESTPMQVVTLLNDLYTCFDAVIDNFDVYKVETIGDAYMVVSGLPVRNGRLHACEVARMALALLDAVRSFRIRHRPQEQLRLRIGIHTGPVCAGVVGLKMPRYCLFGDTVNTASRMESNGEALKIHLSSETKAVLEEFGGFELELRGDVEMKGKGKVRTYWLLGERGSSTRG
T1 sequence (peptide): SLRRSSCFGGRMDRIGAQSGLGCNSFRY

human NPR1-ANP complex [2] = biological target: T2, human NPR1-ANP complex (human, UniProt P01160 124-151, limits assumed); experiment: FRET assay on hNPR1, competitor Cy5-labeled ANP (half-maximal rise of the ANP signal) [cont.]
T2 construct: Receptor antigen measured in the presence of ANP; also called hNPR1 + ANP; hNPR1-ANP-complex
T2 sequence: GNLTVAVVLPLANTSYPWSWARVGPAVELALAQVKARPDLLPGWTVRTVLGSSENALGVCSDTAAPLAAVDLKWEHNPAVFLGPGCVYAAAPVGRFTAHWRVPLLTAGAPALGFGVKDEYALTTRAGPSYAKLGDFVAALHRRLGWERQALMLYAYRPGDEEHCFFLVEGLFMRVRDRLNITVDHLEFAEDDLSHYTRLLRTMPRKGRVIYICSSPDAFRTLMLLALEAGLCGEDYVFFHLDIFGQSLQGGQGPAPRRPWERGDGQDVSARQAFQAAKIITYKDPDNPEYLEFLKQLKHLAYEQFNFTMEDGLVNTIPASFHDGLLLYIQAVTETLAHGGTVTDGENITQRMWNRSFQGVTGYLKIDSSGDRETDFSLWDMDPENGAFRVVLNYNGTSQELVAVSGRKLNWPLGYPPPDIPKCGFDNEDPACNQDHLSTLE
T2 sequence (peptide): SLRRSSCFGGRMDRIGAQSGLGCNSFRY

[3] = biological target: T3, human NPR1 expressed on CHO-K1 cells (human, UniProt P16066 33-1061); experiment: flow cytometry, hNPR1 expressing CHO-K1 cells without ANP
T3 construct: also called hNPR1 CHO K1; human NPR1 expressing CHO-K1 cells
T3 sequence: T1 sequence

[4] = biological target: T1, human NPR1 expressed on CHO-K1 cells in …; experiment: flow cytometry, 1 uM IgG, +100 nM ANP
[5] = biological target: T4, constitutively active human NPR1 mutant (W74R), recombinant antigen (human, UniProt P16066 33-473); experiment: ELISA, 1 uM IgG
T4 construct: also called W74R hNPR1
T4 sequence: T2 sequence with W74R

[6] = biological target: T5, human NPR1 (Natriuretic Peptide Receptor 1), recombinant antigen (human, UniProt P16066 33-473); experiment: ELISA, 1 uM IgG
T5 construct: also called hNPR1; NPR1-hFc
T5 sequence: T2 sequence

[7] = biological target: T6, human NPR3 (counter target) (human, UniProt P17342 27-481, limits assumed); experiment: ELISA, 1 uM IgG
T6 construct: hNPR3-hFc is named in the pannings; also called hNPR3; hNPR3-hFc
T6 sequence (looked up): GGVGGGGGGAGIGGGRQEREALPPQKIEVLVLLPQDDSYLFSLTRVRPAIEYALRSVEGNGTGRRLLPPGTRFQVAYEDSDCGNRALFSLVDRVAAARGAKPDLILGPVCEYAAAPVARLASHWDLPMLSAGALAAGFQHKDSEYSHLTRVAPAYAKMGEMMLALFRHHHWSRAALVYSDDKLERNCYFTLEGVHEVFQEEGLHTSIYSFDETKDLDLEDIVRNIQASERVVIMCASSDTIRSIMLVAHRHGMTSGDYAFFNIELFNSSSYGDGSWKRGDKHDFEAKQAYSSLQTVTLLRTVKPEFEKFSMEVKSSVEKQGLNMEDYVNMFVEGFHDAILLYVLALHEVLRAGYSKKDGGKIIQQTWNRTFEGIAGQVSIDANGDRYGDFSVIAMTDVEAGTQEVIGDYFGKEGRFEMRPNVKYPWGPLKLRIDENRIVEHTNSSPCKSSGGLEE

[8] = biological target: T7, rat NPR1, recombinant antigen (rat, UniProt P18910 29-469); experiment: ELISA, 1 uM IgG
T7 construct: NCBI NP_036745.1 printed; also called rNPR1
T7 sequence: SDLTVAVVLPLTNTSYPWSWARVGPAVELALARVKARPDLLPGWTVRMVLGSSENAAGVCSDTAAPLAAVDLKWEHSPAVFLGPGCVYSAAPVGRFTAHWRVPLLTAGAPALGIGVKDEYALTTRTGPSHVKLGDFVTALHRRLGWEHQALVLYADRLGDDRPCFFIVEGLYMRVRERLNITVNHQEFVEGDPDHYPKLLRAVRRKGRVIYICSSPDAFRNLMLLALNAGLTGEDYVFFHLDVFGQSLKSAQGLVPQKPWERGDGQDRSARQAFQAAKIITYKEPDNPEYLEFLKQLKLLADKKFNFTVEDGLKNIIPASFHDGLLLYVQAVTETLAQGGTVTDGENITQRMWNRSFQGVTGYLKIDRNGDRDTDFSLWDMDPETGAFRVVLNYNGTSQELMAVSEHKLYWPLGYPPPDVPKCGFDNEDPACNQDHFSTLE

[9] = biological target: T3, human NPR1 expressed on CHO-K1 cells; experiment: cell-based or functional assay
[10] = biological target: T3, human NPR1 expressed on CHO-K1 cells; experiment: flow cytometry, 1 uM IgG
[11] = biological target: T4, constitutively active human NPR1 mutant …; experiment: ELISA, IgG titrated on the antigen without ANP [cont.]
human NPR1-ANP complex [12] = biological target: T2, human NPR1-ANP complex; experiment: ELISA, 1 uM IgG, +100 nM ANP
rat NPR1-ANP complex = biological target: T8, rat NPR1-ANP complex (rat); experiment: ELISA, 1 uM IgG, +100 nM ANP
T8 construct: Rat receptor antigen measured in the presence of ANP; also called rNPR1 + ANP; rNPR1-ANP-complex

[13] = biological target: T4, constitutively active human NPR1 mutant …; experiment: ELISA, IgG titrated on the antigen without ANP

B1: XX12 IgG (antibody, V domains shown)
VH: QVQLLESGGGLVQPGGSLRLSCAASGFTFSSYWMNWVRQAPGKGLEWVSAISSDGSYTYYADSVKGRFTISRDNSKNTLYLQMNSLRAEDTAVYYCARDRYSMIYSYGAGAFDYWGQGTLVTVSS
VL: DIQMTQSPSSLSASVGDRVTITCRASQGISSYLAWYQQKPGKAPKLLIYTASTLQSGVPSRFSGSGSGTDFTLTISSLQPEDFATYYCQQIWMAPRTFGQGTKVEIKR
notes: also called XX12_LALA
Which results are given for B1?
EC50 (read off the curve) [1]: ~0.9 nM; EC50 (read off the curve) (human NPR1-ANP complex [2]): ~0.5 nM

B2: YY03 IgG (YY03_LALA) (antibody, V domains shown)
VH: EVQLLESGGGLVQPGGSLRLSCAASGFTFSSYAISWVRQAPGKGLEWVSAISGSGGSTYYAESVKGRFTISRDNSKNTLYLQMNSLRAEDTAVYYCARESGYVYYLKFDYWGQGTLVTVSS
VL: B1 VL with G28S, A34N, T50A, T53S, I91H, W92V, M93R, A94V, R96I
Does B2 bind [3]?
Result: no binding (tested: 1000 nM)

B3: YY07 IgG (YY07_LALA) (antibody, V domains shown)
VH: EVQLVQSGAEVKKPGESLKISCKGSGYSFTSYWISWVRQMPGKGLEWMGIIYPGTSYTRYSPSFQGQVTISADKSISTAYLQWSSLKASDTAMYYCARGSLPGLLGFDHWGQGTLVTVSS
VL: QSVLTQPPSVSGAPGQRVTISCTGSSSNIGAGYDVHWYQQLPGTAPKLLIYGNSNRPNGVPDRFSGSKSGTSASLAITGLQAEDEADYYCQSYDSPTSSSVFGGGTKLTVLG
Which results are given for B3?
flow cytometry S/BG [4]: 44 S/BG; ELISA IgG binding at 1 uM IgG (unit not given) [5]: 53; ELISA IgG binding at 1 uM IgG (unit not given) [6]: 68; ELISA IgG binding at 1 uM IgG (unit not given) [7]: 6; ELISA IgG binding at 1 uM IgG (unit not given) [8]: 3; cGMP conc [nM] at 1 uM IgG, +0.075 nM ANP [9]: 9 nM; cGMP conc [nM] at 1 uM IgG, without ANP [9]: 4 nM; flow cytometry S/BG [10]: 8 S/BG; EC50 (read off the curve) [11]: ~2 nM; ELISA IgG binding at 1 uM IgG (unit not given) (human NPR1-ANP complex [12]): 24; ELISA IgG binding at 1 uM IgG (unit not given) (rat NPR1-ANP complex): 3

B4: WW01 IgG (WW01_LALA) (antibody, V domains shown)
VH: QVQLLESGGGLVQPGGSLRLSCAASGFTFNTHYIHWVRQAPGKGLEWVSSISGSGSNTYYADSVKGRFTISRDNSKNTLYLQMNSLRAEDTAVYYCARERGYVYYHMFDPWGQGTLVTVSS
VL: DIVLTQSPATLSLSPGERATLSCRASQSITRNYLAWYQQKPGQAPRLLIYGASSRATGIPARFSGSGSGTDFTLTISSLEPEDFAVYYCQQHSMYPRTFGQGTKVEIKR
Does B4 bind [13]?
Result: no binding (tested: 1000 nM)
